Assay results from patent US20130251728A1 (Regeneron, published 2013).
Substitutions are numbered along the chain they refer to.

T1: hGCGR-mmh (human)
T1 construct: also called REGN547; monovalent hGCGR
T1 chain: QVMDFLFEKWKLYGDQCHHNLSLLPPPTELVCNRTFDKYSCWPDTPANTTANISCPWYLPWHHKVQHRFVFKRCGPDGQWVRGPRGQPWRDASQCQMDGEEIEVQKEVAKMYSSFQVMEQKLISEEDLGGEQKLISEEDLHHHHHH

T2: monkey (Macaca fascicularis) GCGR (full-length, on HEK293 reporter cells) (monkey (Macaca fascicularis), UniProt P47871 26-477 (human entry))
T2 chain: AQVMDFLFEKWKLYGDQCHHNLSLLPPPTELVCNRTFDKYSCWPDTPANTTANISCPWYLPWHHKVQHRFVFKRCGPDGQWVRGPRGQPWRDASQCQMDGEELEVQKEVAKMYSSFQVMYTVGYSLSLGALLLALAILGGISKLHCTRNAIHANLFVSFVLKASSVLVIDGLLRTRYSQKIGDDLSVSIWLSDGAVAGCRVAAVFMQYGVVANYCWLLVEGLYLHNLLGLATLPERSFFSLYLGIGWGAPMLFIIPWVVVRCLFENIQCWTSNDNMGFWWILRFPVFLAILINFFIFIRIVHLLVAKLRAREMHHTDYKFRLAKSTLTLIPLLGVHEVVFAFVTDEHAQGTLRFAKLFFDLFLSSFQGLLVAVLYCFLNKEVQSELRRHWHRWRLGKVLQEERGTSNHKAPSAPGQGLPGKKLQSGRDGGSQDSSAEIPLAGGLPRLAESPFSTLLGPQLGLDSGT

B1: H4H1765N (antibody, V domains shown)
VH: EEQLVESGGDLVQPGGSLRLSCAASGFTLSSYEMNWVRQAPGKGLEWVSYISRGGSLIHYTDSVKGRFTISRDNAKNSLYLQMNSLRAEDTAVYYCVRDPAARYHYYYHGMDVWGQGTTVTVSS
VL: DIVMTQSPLSLPVTPGEPASISCRSSQSLLHNNGYNYLDWYLQKPGQSPQLLIYLGSSRASGVPDRFSGSGSGTDFILKISRVEAEDVGVYYCMQALQTPWTFGRGTKVEIK
notes: Anti-GCGR antibody from hybridoma; the controls are called isotype-matched hIgG4
B2: H4H1345N (antibody, V domains shown)
VH: QVQLVQSGADVKKPGASVKVSCKVSGHILTDLSMHWVRQPPGKGLEWMAGFDPEEGKIIYAQKFQGRVTMTEDTSTDTAYMELSSLRSGDTAVYYCATSDILTGYYRDYYGLDVWGQGTTLTVSS
VL: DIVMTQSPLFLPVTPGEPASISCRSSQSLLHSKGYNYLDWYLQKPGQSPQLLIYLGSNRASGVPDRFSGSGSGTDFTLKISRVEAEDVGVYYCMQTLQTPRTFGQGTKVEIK
notes: as for B1
B3: H4H1617N (antibody, V domains shown)
VH: B2 VH with P40A, A49G, K57E
VL: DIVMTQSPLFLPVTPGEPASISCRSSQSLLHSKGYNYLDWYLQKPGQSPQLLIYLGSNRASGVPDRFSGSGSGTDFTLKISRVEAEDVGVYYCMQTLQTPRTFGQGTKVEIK
notes: as for B1

Key:
hGCGR-mmh [1] = target: T1, hGCGR-mmh; experiment: SPR Biacore T100, 37C, mAb captured, antigen flowed
Procedure: (§1) Measurements were conducted on a T100 Biacore instrument. Antibodies were captured onto the Biacore sensor chip surface via a covalently-linked anti-human kappa antibody capture surface, and the soluble GCGR proteins were applied to the surface either in a monovalent (hGCGR expressed with a myc-myc-hexa-histidine C-terminal tag) or bivalent (hGCGR and MfGCGR expressed with an N-terminal Fc fusion) format.
(§2) Binding dissociation equilibrium constants and dissociative half-lives were calculated from the kinetic rate constants as: KD=kd/kₐ; t_{1/2}=(In2/kd).

hGCGR-hFc [2] = target: T3, hGCGR-hFc (human); experiment: as above
T3 construct: also called REGN316
Procedure: as §1, §2

mfGCGR-hFc [3] = target: T4, mfGCGR-hFc (cynomolgus monkey (Macaca fascicularis)); experiment: as above
T4 construct: also called mfGCGR-N-terminal hFc
T4 sequence (chain, as listed by the source limits assumed): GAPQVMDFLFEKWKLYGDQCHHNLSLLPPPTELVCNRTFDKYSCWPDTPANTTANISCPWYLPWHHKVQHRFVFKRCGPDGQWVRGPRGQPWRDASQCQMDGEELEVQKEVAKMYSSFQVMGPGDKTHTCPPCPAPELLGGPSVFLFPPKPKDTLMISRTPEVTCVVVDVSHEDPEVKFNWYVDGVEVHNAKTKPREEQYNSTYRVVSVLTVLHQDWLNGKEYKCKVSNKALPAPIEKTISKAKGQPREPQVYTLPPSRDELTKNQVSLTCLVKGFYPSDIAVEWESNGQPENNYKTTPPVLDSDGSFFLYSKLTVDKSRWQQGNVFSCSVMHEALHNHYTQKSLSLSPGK
Procedure: as §1, §2

hGCGR-mmh [4] = target: T1, hGCGR-mmh; experiment: SPR Biacore T100, 25C, mAb captured, antigen flowed
Procedure: as §1, §2

hGCGR-hFc [5] = target: T3, hGCGR-hFc; experiment: as above
Procedure: as §1, §2

mfGCGR-hFc [6] = target: T4, mfGCGR-hFc; experiment: as above
Procedure: as §1, §2

[7] = target: human GCGR (full-length, on HEK293 reporter cells) (human, UniProt P47871 27-477); experiment: cell-based or functional assay
[8] = target: T2, monkey (Macaca fascicularis) GCGR …; experiment: cell-based or functional assay
[9] = target: rat GCGR (full-length, on transiently transfected HEK293 reporter cells) (rat, UniProt P30082 27-485); experiment: cell-based or functional assay
Sequence of rat GCGR (full-length, on transiently transfected HEK293 reporter cells) (P30082 27-485 limits assumed): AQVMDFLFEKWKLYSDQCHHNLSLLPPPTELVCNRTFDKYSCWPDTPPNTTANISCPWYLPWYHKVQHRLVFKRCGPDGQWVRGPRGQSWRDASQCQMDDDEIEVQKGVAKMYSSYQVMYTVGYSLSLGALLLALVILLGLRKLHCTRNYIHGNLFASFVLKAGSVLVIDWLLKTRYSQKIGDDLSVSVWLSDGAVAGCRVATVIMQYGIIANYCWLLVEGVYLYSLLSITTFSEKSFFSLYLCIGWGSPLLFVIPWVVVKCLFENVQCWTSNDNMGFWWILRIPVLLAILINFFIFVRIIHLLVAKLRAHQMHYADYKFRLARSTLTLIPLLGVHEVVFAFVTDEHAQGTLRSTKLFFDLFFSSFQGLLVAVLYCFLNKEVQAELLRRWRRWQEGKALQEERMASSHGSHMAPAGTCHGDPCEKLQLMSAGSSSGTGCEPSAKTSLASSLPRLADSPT

Binder	Kd (hGCGR-mmh [1]) [nM]	T½ (hGCGR-mmh [1]) [h]	koff (hGCGR-mmh [1]) [s⁻¹]	kon (hGCGR-mmh [1]) [M⁻¹ s⁻¹]	Kd (hGCGR-hFc [2]) [nM]	T½ (hGCGR-hFc [2]) [h]	koff (hGCGR-hFc [2]) [s⁻¹]	kon (hGCGR-hFc [2]) [M⁻¹ s⁻¹]	Kd (mfGCGR-hFc [3]) [nM]	T½ (mfGCGR-hFc [3]) [h]	koff (mfGCGR-hFc [3]) [s⁻¹]	kon (mfGCGR-hFc [3]) [M⁻¹ s⁻¹]	Kd (hGCGR-mmh [4]) [nM]	T½ (hGCGR-mmh [4]) [h]	koff (hGCGR-mmh [4]) [s⁻¹]	kon (hGCGR-mmh [4]) [M⁻¹ s⁻¹]	Kd (hGCGR-hFc [5]) [nM]	T½ (hGCGR-hFc [5]) [h]	koff (hGCGR-hFc [5]) [s⁻¹]	kon (hGCGR-hFc [5]) [M⁻¹ s⁻¹]	also measured
B1	0.252	1.73	0.000111	441000	0.0537	5.4	3.57e-05	664000	0.0164	13	1.48e-05	904000	0.093	6.32	3.05e-05	326000	0.0122	38.9	4.95e-06	410000	Kd (mfGCGR-hFc [6]): ≤ 0.00156 nM; T½ (mfGCGR-hFc [6]): 192 h; koff (mfGCGR-hFc [6]): ≤ 1e-06 s⁻¹; kon (mfGCGR-hFc [6]): 643000 M⁻¹ s⁻¹; IC50, inhibition of 100 pM GCG-stimulated luciferase activity, hGCGR reporter cells [7]: 12.8 nM; IC50, inhibition of 100 pM GCG-stimulated luciferase activity, mfGCGR reporter cells [8]: 75.2 nM
B2	2.12	0.1	0.00197	928000	0.324	0.617	0.000309	952000	0.101	1.52	0.000128	1.27e+06	0.431	0.567	0.000344	798000	0.0724	3.37	5.72e-05	790000	Kd (mfGCGR-hFc [6]): 0.0254 nM; T½ (mfGCGR-hFc [6]): 7.95 h; koff (mfGCGR-hFc [6]): 2.42e-05 s⁻¹; kon (mfGCGR-hFc [6]): 953000 M⁻¹ s⁻¹; IC50, inhibition of 100 pM GCG-stimulated luciferase activity, rat GCGR reporter cells [9]: 8.07 nM; IC50, inhibition of 100 pM GCG-stimulated luciferase activity, hGCGR reporter cells [7]: 2.22 nM; IC50, inhibition of 100 pM GCG-stimulated luciferase activity, mfGCGR reporter cells [8]: 3.86 nM
B3	0.943	0.167	0.00113	1.2e+06	0.181	0.9	0.000214	1.18e+06	0.0586	2.22	8.72e-05	1.49e+06	0.187	0.967	0.000199	1.07e+06	0.0389	6.05	3.18e-05	818000	Kd (mfGCGR-hFc [6]): 0.011 nM; T½ (mfGCGR-hFc [6]): 13.9 h; koff (mfGCGR-hFc [6]): 1.38e-05 s⁻¹; kon (mfGCGR-hFc [6]): 1.26e+06 M⁻¹ s⁻¹; IC50, inhibition of 100 pM GCG-stimulated luciferase activity, rat GCGR reporter cells [9]: 3.66 nM; IC50, inhibition of 100 pM GCG-stimulated luciferase activity, hGCGR reporter cells [7]: 1.25 nM; IC50, inhibition of 100 pM GCG-stimulated luciferase activity, mfGCGR reporter cells [8]: 4.24 nM
